{"source": "patent US20230416343A1", "about": "(SORRENTO THERAPEUTICS, published 2023)", "target": "S protein of live SARS-CoV-2 WA-1/2020 isolate (SARS-CoV-2, UniProt P0DTC2 14-1273)", "assay": "cell-based or functional assay", "data": [{"binder": "S1D7270LALA antibody (STI-2020) (antibody, V domains shown) VH: EVQLVESGGGLIQPGGSLRLSCAASGFTVSSNYMSWVRQAPGKGLEWVSIIYPGGSTEYADSVKGRFTISRDNSRNTLYLQMNSLRAEDTAVYYCARELGYYGMDVWGQGTTVTVSS VL: DIQMTQSPSSVSASVGDRVTITCRASQGISTWLVWYQQKPGKAPNLLIYGASSLQSGVPSRFSGSGSGTDFTLTISSLQPEDFATYYCQQANAYPYTFGQGTKLEIK", "values": [{"measurement": "IC50, inhibition of cytopathic effect (CPE) on Vero E6 cells, live virus", "value": 0.055, "unit": "µg/mL"}]}]}
